The record followed here is patent US20200121803A1 (published 2020).

This assay addresses T1, human CD98, endogenously expressed on Molt-4 human acute lymphoblastic leukemia cells (human).
T1 chain: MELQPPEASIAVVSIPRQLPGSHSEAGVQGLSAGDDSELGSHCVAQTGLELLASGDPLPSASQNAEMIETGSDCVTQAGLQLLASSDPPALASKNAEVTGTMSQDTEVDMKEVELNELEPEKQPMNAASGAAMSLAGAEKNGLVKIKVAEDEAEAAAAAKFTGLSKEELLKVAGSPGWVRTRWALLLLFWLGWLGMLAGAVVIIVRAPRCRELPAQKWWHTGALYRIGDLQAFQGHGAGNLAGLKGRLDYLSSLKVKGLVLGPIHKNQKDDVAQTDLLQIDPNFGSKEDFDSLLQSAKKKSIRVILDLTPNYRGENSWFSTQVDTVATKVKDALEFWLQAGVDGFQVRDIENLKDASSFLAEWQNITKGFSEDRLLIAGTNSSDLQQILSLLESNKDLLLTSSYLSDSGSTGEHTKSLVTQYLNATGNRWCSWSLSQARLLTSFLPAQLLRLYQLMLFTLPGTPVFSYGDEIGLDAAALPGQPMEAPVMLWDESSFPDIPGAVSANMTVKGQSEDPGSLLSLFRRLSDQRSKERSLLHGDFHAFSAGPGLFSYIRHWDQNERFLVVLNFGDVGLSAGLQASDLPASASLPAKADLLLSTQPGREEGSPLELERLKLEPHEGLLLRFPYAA
The experiment in a line: cell-based or functional assay.

B1: CD98 (CL-huAb102)-AAD (antibody, human IgG1, kappa, L234A L235A, V domains shown)
VH: EVQLVESGGGLVQPGGSLRLSCATSGFTFIDYYMSWVRQAPGKGLEWLGFIRNKANRYTTEYSASVKGRFTISRDNSKSILYLQMNSLKTEDTAVYYCTRDRPAWFVYWGQGTLVTVSS
VL: DIVMTQTPLSLPVTPGEPASISCKSSQSLLYSSNQKNYLAWYLQKPGQSPQLLIYWASTRESGVPDRFSGSGSGTDFTLKISRVEAEDVGVYYCQQYYSYPYTFGGGTKVEIKR
modifications: synthon AAD on reduced interchain cysteines (sites not given)
For B1, the “% Cell Viability at 50 nM” value was determined as 2.2% and the “Molt4 IC50” value stood at 0.024 nM.

B2: CD98 (CL-huAb102)-WD (antibody, human IgG1, kappa, L234A L235A, V domains shown)
VH: EVQLVESGGGLVQPGGSLRLSCATSGFTFIDYYMSWVRQAPGKGLEWLGFIRNKANRYTTEYSASVKGRFTISRDNSKSILYLQMNSLKTEDTAVYYCTRDRPAWFVYWGQGTLVTVSS
VL: DIVMTQTPLSLPVTPGEPASISCKSSQSLLYSSNQKNYLAWYLQKPGQSPQLLIYWASTRESGVPDRFSGSGSGTDFTLKISRVEAEDVGVYYCQQYYSYPYTFGGGTKVEIKR
modifications: synthon WD on reduced interchain cysteines (sites not given)
On to B2, for which the “% Cell Viability at 50 nM” value stood at 14.3% and the “Molt4 IC50” value turned out to be 0.109 nM.

B3: CD98 (CL-huAb104)-AAD (antibody, human IgG1, kappa, L234A L235A, V domains shown)
VH: EVQLVESGGGLVQPGGSLRLSCATSGFTFIDYYMSWVRQAPGKGLEWLGFIRNKAYGYTTEYSASVKGRFTISRDNSKSILYLQMNSLKTEDTAVYYCTRDRPAWFVYWGQGTLVTVSS
VL: DIVMTQTPLSLPVTPGEPASISCKSSQSLLYSSNQKNYLAWYLQKPGQSPQLLIYWASTRESGVPDRFSGSGSGTDFTLKISRVEAEDVGVYYCQQYYSYPYTFGGGTKVEIKR
modifications: synthon AAD on reduced interchain cysteines (sites not given)
Turning to B3, the “% Cell Viability at 50 nM” value came to 2.5% and the “Molt4 IC50” value came to 0.028 nM.

B4: CD98 (CL-huAb110)-AAD (antibody, human IgG1, kappa, L234A L235A, V domains shown)
VH: EVQLVQSGAEVKKPGASVKVSCKASGFTFSDYTMAWVRQAPGQGLEWVATIIYDARGTYYRDAVKGRFTITRDNSTSTLYLELSSLRSEDTAVYYCARQSDDTYYYWGYFDYWGQGTMVTVSS
VL: DIVMTQTPLSLPVTPGEPASINCKSSQSLLFSGNQKNYLAWYLQKPGQSPQLLIYWASTRQSGVPDRFSGSGSGTDFTLKISRVEAEDVGIYYCQQYYSSPYTFGQGTKLEIKR
modifications: synthon AAD on reduced interchain cysteines (sites not given)
B4: the “% Cell Viability at 50 nM” value came to 1.5% and the “Molt4 IC50” value was 0.074 nM.

B5: CD98 (CL-huAb108)-AAD (antibody, human IgG1, kappa, L234A L235A, V domains shown)
VH: EVQLVQSGAEVKKPGASVKVSCKASGFTFSDYTMAWVRQAPGQGLEWVATIIYSGRGTYYRDAVKGRFTITRDNSTSTLYLELSSLRSEDTAVYYCARQSDDTYYYWGYFDYWGQGTMVTVSS
VL: DIVMTQTPLSLPVTPGEPASINCKSSQSLLFSGNQKNYLAWYLQKPGQSPQLLIYWASTRQSGVPDRFSGSGSGTDFTLKISRVEAEDVGIYYCQQYYDVPYTFGQGTKLEIKR
modifications: synthon AAD on reduced interchain cysteines (sites not given)
As for B5, the “% Cell Viability at 50 nM” value is 1.8% and the “Molt4 IC50” value came to 0.091 nM.

B6: CD98 (CL-huAb110)- LB (antibody, human IgG1, kappa, L234A L235A, V domains shown)
VH: EVQLVQSGAEVKKPGASVKVSCKASGFTFSDYTMAWVRQAPGQGLEWVATIIYDARGTYYRDAVKGRFTITRDNSTSTLYLELSSLRSEDTAVYYCARQSDDTYYYWGYFDYWGQGTMVTVSS
VL: DIVMTQTPLSLPVTPGEPASINCKSSQSLLFSGNQKNYLAWYLQKPGQSPQLLIYWASTRQSGVPDRFSGSGSGTDFTLKISRVEAEDVGIYYCQQYYSSPYTFGQGTKLEIKR
modifications: synthon LB on reduced interchain cysteines (sites not given)
B6: the “% Cell Viability at 50 nM” value stood at 1.9% and the “Molt4 IC50” value is 0.208 nM.

B7: CD98 (CL-huAb102)-ZZ (antibody, human IgG1, kappa, L234A L235A, V domains shown)
VH: EVQLVESGGGLVQPGGSLRLSCATSGFTFIDYYMSWVRQAPGKGLEWLGFIRNKANRYTTEYSASVKGRFTISRDNSKSILYLQMNSLKTEDTAVYYCTRDRPAWFVYWGQGTLVTVSS
VL: DIVMTQTPLSLPVTPGEPASISCKSSQSLLYSSNQKNYLAWYLQKPGQSPQLLIYWASTRESGVPDRFSGSGSGTDFTLKISRVEAEDVGVYYCQQYYSYPYTFGGGTKVEIKR
modifications: synthon ZZ on reduced interchain cysteines (sites not given)
In the case of B7, the “% Cell Viability at 50 nM” value came out at 6.3% and the “Molt4 IC50” value worked out at 0.072 nM.

B8: CD98 (CL-huAb104)-ZT (antibody, human IgG1, kappa, L234A L235A, V domains shown)
VH: EVQLVESGGGLVQPGGSLRLSCATSGFTFIDYYMSWVRQAPGKGLEWLGFIRNKAYGYTTEYSASVKGRFTISRDNSKSILYLQMNSLKTEDTAVYYCTRDRPAWFVYWGQGTLVTVSS
VL: DIVMTQTPLSLPVTPGEPASISCKSSQSLLYSSNQKNYLAWYLQKPGQSPQLLIYWASTRESGVPDRFSGSGSGTDFTLKISRVEAEDVGVYYCQQYYSYPYTFGGGTKVEIKR
modifications: synthon ZT on reduced interchain cysteines (sites not given)
Regarding B8, the “% Cell Viability at 50 nM” value is 3.3% and the “Molt4 IC50” value turned out to be 0.042 nM.

B9: CD98 (CL-huAb102)-LB (antibody, human IgG1, kappa, L234A L235A, V domains shown)
VH: EVQLVESGGGLVQPGGSLRLSCATSGFTFIDYYMSWVRQAPGKGLEWLGFIRNKANRYTTEYSASVKGRFTISRDNSKSILYLQMNSLKTEDTAVYYCTRDRPAWFVYWGQGTLVTVSS
VL: DIVMTQTPLSLPVTPGEPASISCKSSQSLLYSSNQKNYLAWYLQKPGQSPQLLIYWASTRESGVPDRFSGSGSGTDFTLKISRVEAEDVGVYYCQQYYSYPYTFGGGTKVEIKR
modifications: synthon LB on reduced interchain cysteines (sites not given)
For B9, the “% Cell Viability at 50 nM” value came out at 14.8% and the “Molt4 IC50” value turned out to be 0.053 nM.

B10: CD98 (CL-huAb102)-ZT (antibody, human IgG1, kappa, L234A L235A, V domains shown)
VH: EVQLVESGGGLVQPGGSLRLSCATSGFTFIDYYMSWVRQAPGKGLEWLGFIRNKANRYTTEYSASVKGRFTISRDNSKSILYLQMNSLKTEDTAVYYCTRDRPAWFVYWGQGTLVTVSS
VL: DIVMTQTPLSLPVTPGEPASISCKSSQSLLYSSNQKNYLAWYLQKPGQSPQLLIYWASTRESGVPDRFSGSGSGTDFTLKISRVEAEDVGVYYCQQYYSYPYTFGGGTKVEIKR
modifications: synthon ZT on reduced interchain cysteines (sites not given)
B10: the “% Cell Viability at 50 nM” value came to 3.4% and the “Molt4 IC50” value is 0.04 nM.

B11: CD98 (CL-huAb104)-ZZ (antibody, human IgG1, kappa, L234A L235A, V domains shown)
VH: EVQLVESGGGLVQPGGSLRLSCATSGFTFIDYYMSWVRQAPGKGLEWLGFIRNKAYGYTTEYSASVKGRFTISRDNSKSILYLQMNSLKTEDTAVYYCTRDRPAWFVYWGQGTLVTVSS
VL: DIVMTQTPLSLPVTPGEPASISCKSSQSLLYSSNQKNYLAWYLQKPGQSPQLLIYWASTRESGVPDRFSGSGSGTDFTLKISRVEAEDVGVYYCQQYYSYPYTFGGGTKVEIKR
modifications: synthon ZZ on reduced interchain cysteines (sites not given)
With B11, the “% Cell Viability at 50 nM” value came to 6.5% and the “Molt4 IC50” value is 0.061 nM.

B12: CD98 (CL-huAb108)-ZT (antibody, human IgG1, kappa, L234A L235A, V domains shown)
VH: EVQLVQSGAEVKKPGASVKVSCKASGFTFSDYTMAWVRQAPGQGLEWVATIIYSGRGTYYRDAVKGRFTITRDNSTSTLYLELSSLRSEDTAVYYCARQSDDTYYYWGYFDYWGQGTMVTVSS
VL: DIVMTQTPLSLPVTPGEPASINCKSSQSLLFSGNQKNYLAWYLQKPGQSPQLLIYWASTRQSGVPDRFSGSGSGTDFTLKISRVEAEDVGIYYCQQYYDVPYTFGQGTKLEIKR
modifications: synthon ZT on reduced interchain cysteines (sites not given)
Turning to B12, the “% Cell Viability at 50 nM” value amounted to 4.5% and the “Molt4 IC50” value was 0.144 nM.

B13: CD98 (CL-huAb110)-ZT (antibody, human IgG1, kappa, L234A L235A, V domains shown)
VH: EVQLVQSGAEVKKPGASVKVSCKASGFTFSDYTMAWVRQAPGQGLEWVATIIYDARGTYYRDAVKGRFTITRDNSTSTLYLELSSLRSEDTAVYYCARQSDDTYYYWGYFDYWGQGTMVTVSS
VL: DIVMTQTPLSLPVTPGEPASINCKSSQSLLFSGNQKNYLAWYLQKPGQSPQLLIYWASTRQSGVPDRFSGSGSGTDFTLKISRVEAEDVGIYYCQQYYSSPYTFGQGTKLEIKR
modifications: synthon ZT on reduced interchain cysteines (sites not given)
As to B13, the “% Cell Viability at 50 nM” value was 3.5% and the “Molt4 IC50” value worked out at 0.156 nM.

B14: CD98 (CL-huAb110)-WD (antibody, human IgG1, kappa, L234A L235A, V domains shown)
VH: EVQLVQSGAEVKKPGASVKVSCKASGFTFSDYTMAWVRQAPGQGLEWVATIIYDARGTYYRDAVKGRFTITRDNSTSTLYLELSSLRSEDTAVYYCARQSDDTYYYWGYFDYWGQGTMVTVSS
VL: DIVMTQTPLSLPVTPGEPASINCKSSQSLLFSGNQKNYLAWYLQKPGQSPQLLIYWASTRQSGVPDRFSGSGSGTDFTLKISRVEAEDVGIYYCQQYYSSPYTFGQGTKLEIKR
modifications: synthon WD on reduced interchain cysteines (sites not given)
With B14, the “% Cell Viability at 50 nM” value was determined as 10.7% and the “Molt4 IC50” value was determined as 0.226 nM.

B15: CD98 (CL-huAb104)-WD (antibody, human IgG1, kappa, L234A L235A, V domains shown)
VH: EVQLVESGGGLVQPGGSLRLSCATSGFTFIDYYMSWVRQAPGKGLEWLGFIRNKAYGYTTEYSASVKGRFTISRDNSKSILYLQMNSLKTEDTAVYYCTRDRPAWFVYWGQGTLVTVSS
VL: DIVMTQTPLSLPVTPGEPASISCKSSQSLLYSSNQKNYLAWYLQKPGQSPQLLIYWASTRESGVPDRFSGSGSGTDFTLKISRVEAEDVGVYYCQQYYSYPYTFGGGTKVEIKR
modifications: synthon WD on reduced interchain cysteines (sites not given)
On to B15, for which the “% Cell Viability at 50 nM” value was 16.4% and the “Molt4 IC50” value turned out to be 0.067 nM.

B16: CD98 (CL-huAb104)-LB (antibody, human IgG1, kappa, L234A L235A, V domains shown)
VH: EVQLVESGGGLVQPGGSLRLSCATSGFTFIDYYMSWVRQAPGKGLEWLGFIRNKAYGYTTEYSASVKGRFTISRDNSKSILYLQMNSLKTEDTAVYYCTRDRPAWFVYWGQGTLVTVSS
VL: DIVMTQTPLSLPVTPGEPASISCKSSQSLLYSSNQKNYLAWYLQKPGQSPQLLIYWASTRESGVPDRFSGSGSGTDFTLKISRVEAEDVGVYYCQQYYSYPYTFGGGTKVEIKR
modifications: synthon LB on reduced interchain cysteines (sites not given)
Consider B16, for which the “% Cell Viability at 50 nM” value amounted to 3.5% and the “Molt4 IC50” value was found to be 0.062 nM.

B17: CD98 (CL-huAb108-ZZ (antibody, human IgG1, kappa, L234A L235A, V domains shown)
VH: EVQLVQSGAEVKKPGASVKVSCKASGFTFSDYTMAWVRQAPGQGLEWVATIIYSGRGTYYRDAVKGRFTITRDNSTSTLYLELSSLRSEDTAVYYCARQSDDTYYYWGYFDYWGQGTMVTVSS
VL: DIVMTQTPLSLPVTPGEPASINCKSSQSLLFSGNQKNYLAWYLQKPGQSPQLLIYWASTRQSGVPDRFSGSGSGTDFTLKISRVEAEDVGIYYCQQYYDVPYTFGQGTKLEIKR
modifications: synthon ZZ on reduced interchain cysteines (sites not given)
With B17, the “% Cell Viability at 50 nM” value came out at 5.8% and the “Molt4 IC50” value turned out to be 0.199 nM.
